According to patent publication US20240010735A1 (EISAI R AND D MANAGEMENT, published 2024):

What was measured:
Test in all cases: ELISA: Fc-His proteins (1 nM) captured on anti-6-His antibody, antibody A 10 µg/mL with human IgG 100 µg/mL, HRP anti-mouse IgG, OD450 as % of mouse EphA4-Fc-His
[1] = molecular target: T1, mouse EphB3 extracellular region-Fc-His protein (mouse; human, UniProt P54754 30-554)
T1 construct: extracellular domain; not shown: Fc region of human IgG1; histidine tag
T1 sequence (looked up): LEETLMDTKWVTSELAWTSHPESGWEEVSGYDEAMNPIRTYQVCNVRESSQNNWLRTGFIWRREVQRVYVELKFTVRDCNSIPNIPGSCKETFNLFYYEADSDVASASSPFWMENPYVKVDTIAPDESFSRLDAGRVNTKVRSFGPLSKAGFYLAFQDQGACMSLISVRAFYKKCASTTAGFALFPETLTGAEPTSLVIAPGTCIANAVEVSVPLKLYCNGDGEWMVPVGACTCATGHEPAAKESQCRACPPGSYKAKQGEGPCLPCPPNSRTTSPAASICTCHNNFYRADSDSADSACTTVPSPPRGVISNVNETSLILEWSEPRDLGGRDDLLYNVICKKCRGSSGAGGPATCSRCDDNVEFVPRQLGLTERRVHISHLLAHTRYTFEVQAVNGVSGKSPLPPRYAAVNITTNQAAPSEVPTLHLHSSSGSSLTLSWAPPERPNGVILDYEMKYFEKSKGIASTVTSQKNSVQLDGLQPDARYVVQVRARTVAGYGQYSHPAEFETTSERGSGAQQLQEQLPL
Procedure: (§1) Rabbit anti-6-His antibodies (Bethyl Laboratories) were coated onto the wells of a 96-well plate (Nunc). After incubating at 4° C. overnight, the wells were blocked at room temperature for 1 hour by 1% Block Ace (DS Pharma Biomedical). After washing 3 times with 0.05% Tween 20/PBS (Thermo […]), each Eph receptor of mouse extracellular region-Fc-His protein (final concentration 1 nM) was seeded into each well, and incubated at room temperature for 1 hour. After washing 3 times, human IgG solution (100 μg/mL, Sigma) and antibody A (10 μg/mL) were supplemented to the wells, and incubated at room temperature for 1 hour. Horseradish peroxidase-labeled donkey anti-mouse IgG antibody (Jackson ImmunoResearch Laboratories) was added, and incubated at room temperature for 1 hour. After washing 3 times, TMBZ (3,3′,5,5′-tetramethylbenzidine, Sigma) solution was added to the wells, and upon confirmation of modest coloring, an equal amount of quenching solution (1 N H₂SO₄, Wako Pure Chemicals) was added to the wells, and absorbance at 450 nm was read by a microplate reader (PerkinElmer).

[2] = molecular target: T2, mouse EphA2 extracellular region-Fc-His protein (mouse, UniProt Q03145 26-538)
T2 construct: extracellular domain; Cloned into a pcDNA 3.1 vector separately from the other mouse Eph receptors; not shown: Fc; histidine tag
T2 sequence (Q03145 26-538): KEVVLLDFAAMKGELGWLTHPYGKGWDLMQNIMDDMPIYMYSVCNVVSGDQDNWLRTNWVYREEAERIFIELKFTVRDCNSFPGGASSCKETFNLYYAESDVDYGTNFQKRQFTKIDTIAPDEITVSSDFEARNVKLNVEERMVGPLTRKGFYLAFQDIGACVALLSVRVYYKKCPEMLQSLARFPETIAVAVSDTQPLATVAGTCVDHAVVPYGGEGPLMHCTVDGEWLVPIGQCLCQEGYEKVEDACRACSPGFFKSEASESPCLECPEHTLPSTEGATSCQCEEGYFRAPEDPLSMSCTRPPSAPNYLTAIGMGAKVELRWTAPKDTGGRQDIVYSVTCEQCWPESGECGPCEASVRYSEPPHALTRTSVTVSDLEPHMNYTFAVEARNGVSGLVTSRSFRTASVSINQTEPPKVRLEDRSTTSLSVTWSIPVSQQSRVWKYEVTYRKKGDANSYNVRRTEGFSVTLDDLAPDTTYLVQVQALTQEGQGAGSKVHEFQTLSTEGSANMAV
Procedure: as §1

[3] = molecular target: T3, mouse EphA8 extracellular region-Fc-His protein (mouse; human, UniProt O09127 27-541)
T3 construct: extracellular domain; not shown: Fc region of human IgG1; histidine tag
T3 sequence (looked up): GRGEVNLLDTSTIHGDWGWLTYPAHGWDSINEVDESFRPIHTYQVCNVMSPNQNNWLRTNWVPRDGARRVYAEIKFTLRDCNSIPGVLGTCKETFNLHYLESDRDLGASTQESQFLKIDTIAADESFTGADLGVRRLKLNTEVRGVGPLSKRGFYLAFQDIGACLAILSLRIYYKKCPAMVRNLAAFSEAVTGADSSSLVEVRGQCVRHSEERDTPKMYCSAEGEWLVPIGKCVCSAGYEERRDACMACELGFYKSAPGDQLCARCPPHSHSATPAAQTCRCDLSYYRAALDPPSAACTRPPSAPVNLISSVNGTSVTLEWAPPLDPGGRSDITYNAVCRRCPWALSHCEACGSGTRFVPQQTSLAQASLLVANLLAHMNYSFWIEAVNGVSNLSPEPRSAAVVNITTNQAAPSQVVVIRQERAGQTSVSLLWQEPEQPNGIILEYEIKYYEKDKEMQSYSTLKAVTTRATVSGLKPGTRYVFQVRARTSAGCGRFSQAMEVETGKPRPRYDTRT
Procedure: as §1

[4] = molecular target: T4, mouse EphB1 extracellular region-Fc-His protein (mouse; human, UniProt Q8CBF3 18-540)
T4 construct: extracellular domain; not shown: Fc region of human IgG1; histidine tag
T4 sequence (looked up): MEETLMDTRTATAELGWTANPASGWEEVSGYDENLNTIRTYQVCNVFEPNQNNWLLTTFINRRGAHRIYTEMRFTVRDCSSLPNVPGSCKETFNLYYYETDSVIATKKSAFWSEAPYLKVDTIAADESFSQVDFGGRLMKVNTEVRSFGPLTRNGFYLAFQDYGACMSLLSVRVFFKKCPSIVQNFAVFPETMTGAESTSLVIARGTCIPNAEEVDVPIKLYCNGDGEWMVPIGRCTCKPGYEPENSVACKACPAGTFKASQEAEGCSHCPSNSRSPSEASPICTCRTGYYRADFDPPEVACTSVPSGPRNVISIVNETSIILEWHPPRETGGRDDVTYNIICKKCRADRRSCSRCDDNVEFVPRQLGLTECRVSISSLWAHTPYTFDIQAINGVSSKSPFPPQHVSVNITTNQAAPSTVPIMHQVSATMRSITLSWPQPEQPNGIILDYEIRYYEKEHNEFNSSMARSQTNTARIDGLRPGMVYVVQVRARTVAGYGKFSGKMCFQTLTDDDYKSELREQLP
Procedure: as §1

Measured: binding result

B1: mouse anti-EphA4 monoclonal antibody (antibody A) (antibody, mouse IgG1, kappa, V domains shown)
VH: QVQLKQSGPSLVQPSQSLSITCTVSGFSLTRYGVHWVRQSPGKGLEWLGVIWRGGSTDYNAAFMSRLSITKDNSKSQVFFKMNSLQADDTAIYYCAKESLFGVYYDYGYYSMDYWGQGTSVTVSS
VL: DIQMTQSPSSLSASLGERVSLTCRASQEISGYLSWLQQKPDGTIKRLIYAASTLDSGVPKRFSGSRSGSDYSLTISSLESEDFADYYCLQYASYPLTFGAGTKLELKR
notes: purified from hybridoma supernatant
no binding (tested: 10 µg/mL): all assays above
